Key:
[1] = biological target: T1, KLK2 CAR KL2B413-LH expressed on SupT1 cells; experiment: flow cytometry on KL2B413-LH CAR SupT1 cells, directly PE-labelled antibody, PE median fluorescence
T1 construct: also called SupT1-KL2B413 LH; KL2B413-LH SupT1
Method: Multiple lots of PE-A002B39 were compared to assess differences in binding to KL2B413LH-SupT1 cells across batches. KL2B413-LH SupT1 cells (200,000 cells/well) were stained with LIVE/DEAD Fixable Near-IR viability dye and incubated with increasing concentrations of PE-A002B39 for 30 minutes on ice. After incubation, washing, and fixation, the samples were acquired on a 10 color FACSCanto II flow cytometer. Analysis was done using FlowJo analysis software and the PE median fluorescent intensity of live SupT1 cells is plotted in FIG. 7.

KL2B513 [2] = biological target: T2, KL2B513; experiment: SPR, Biacore; antibody captured on anti-mouse Fc, scFv-Fc fusion as analyte
T2 construct: KL2B413-derived scFv-Fc fusion protein with the variable regions in VL-VH orientation; also called KL2B413-LH-scFv; KL2B413-LH scFv-Fc fusion protein; not shown: Fc part of the scFv-Fc fusion and its junction to the scFv
Method: Anti-Mouse Fc antibody directly immobilized on M5 sensor chip. Library Antibodies (Mouse IgG2a) diluted to 1 ug/ml to reach approximately 20-50 RU. Antigens (scFV Fc Fusions) are associated at 500 nM to 0.8 nM, 1:5 dilutions for 3 minutes. Dissociation for 30 mins.

KL2B513 [3] = biological target: T2, KL2B513; experiment: SPR, ProteOn XPR36; antibody captured on anti-mouse Fc, scFv-Fc fusion as analyte
Method: (§1) ProteOn XPR36 system (BioRad) was used to perform binding assays. ProteOn GLC chips (BioRad, Cat#176-5011) were coated with Anti-Mouse Fc antibody. Library Antibodies (Mouse IgG2a) were diluted to 0.25 ug/ml to 1 ug/ml to reach approximately 100-200RL. Antigens (scFv-Fc Fusions) were associated at 1000 nM to 0.4 nM, 1:4 dilutions for 3 minutes, followed by dissociation for 30 mins. The results of the assay (Table 1 below) show similar binding affinity of A002B39 with both KLB513 and KLB610.

KL2B610 = biological target: T3, KL2B610; experiment: as above
T3 construct: KL2B413-derived scFv-Fc fusion protein with the variable regions in VH-VL orientation; also called KL2B413-HL-scFv; KLB610; not shown: Fc part of the scFv-Fc fusion and its junction to the scFv
Method: as §1

[4] = biological target: T1, KLK2 CAR KL2B413-LH expressed on SupT1 …; experiment: flow cytometry on KL2B413-LH SupT1 cells, PE goat anti-mouse IgG detection, PE median fluorescence
Method: SupT1 cells expressing KL2B413LH were compared to parental CAR-SupT1 cells. Cells (100,000 cells/well) were stained with LIVE/DEAD Fixable Near-IR viability dye (Life Technologies L10119) and then incubated with increasing concentrations of A002B39 for 30 minutes on ice. Following incubation, the samples were washed with BSA stain buffer (BD Biosciences #554657) and stained with PE-goat anti-mouse IgG polyclonal antibody (Biolegend #405307) to detect bound antibody on live CAR+SupT1 cells. After incubation, washing, and fixation (Cytofix, BD Biosciences), the samples were acquired on a 10 color FACSCanto II (BD Biosciences) flow cytometer. Analysis was done using FlowJo and the PE median fluorescent intensity of live SupT1 cells is plotted in FIG. 4. […] No binding was detected on CAR-SupT1 parental cells.

T2 sequence (scFv, as listed by the source limits assumed): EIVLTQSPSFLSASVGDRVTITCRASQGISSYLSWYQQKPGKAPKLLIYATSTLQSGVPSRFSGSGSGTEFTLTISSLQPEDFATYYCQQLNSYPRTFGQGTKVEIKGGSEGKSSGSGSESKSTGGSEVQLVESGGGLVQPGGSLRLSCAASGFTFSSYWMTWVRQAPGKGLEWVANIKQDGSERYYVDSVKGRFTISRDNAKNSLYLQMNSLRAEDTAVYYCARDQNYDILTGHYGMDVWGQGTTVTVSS
T3 sequence (scFv, as listed by the source limits assumed): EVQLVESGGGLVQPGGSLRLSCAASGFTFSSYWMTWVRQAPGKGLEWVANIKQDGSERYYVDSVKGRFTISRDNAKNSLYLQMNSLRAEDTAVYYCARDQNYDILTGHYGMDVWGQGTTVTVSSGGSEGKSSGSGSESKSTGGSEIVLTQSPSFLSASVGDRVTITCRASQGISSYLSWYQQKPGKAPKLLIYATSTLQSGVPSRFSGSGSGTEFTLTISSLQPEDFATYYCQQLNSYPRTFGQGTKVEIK
T1 sequence (chain, as listed by the source limits assumed): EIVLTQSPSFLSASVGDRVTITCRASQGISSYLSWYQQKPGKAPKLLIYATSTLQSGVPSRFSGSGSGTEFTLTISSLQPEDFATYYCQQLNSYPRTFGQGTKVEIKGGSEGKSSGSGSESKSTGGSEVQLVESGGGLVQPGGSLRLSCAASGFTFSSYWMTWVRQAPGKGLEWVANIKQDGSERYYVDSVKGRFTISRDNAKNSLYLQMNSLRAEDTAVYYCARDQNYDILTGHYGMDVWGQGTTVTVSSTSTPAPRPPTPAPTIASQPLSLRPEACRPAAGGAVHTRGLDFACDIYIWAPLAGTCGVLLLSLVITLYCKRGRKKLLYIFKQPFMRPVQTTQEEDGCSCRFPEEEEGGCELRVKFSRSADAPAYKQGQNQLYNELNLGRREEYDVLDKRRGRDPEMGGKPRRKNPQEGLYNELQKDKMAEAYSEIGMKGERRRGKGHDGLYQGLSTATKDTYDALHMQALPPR

Row | EC50 [1] [µg/mL] | Kd (KL2B513 [2]) [nM] | koff (KL2B513 [2]) [s⁻¹] | kon (KL2B513 [2]) [M⁻¹ s⁻¹] | Kd (KL2B513 [3]) [nM] | koff (KL2B513 [3]) [s⁻¹] | kon (KL2B513 [3]) [M⁻¹ s⁻¹] | Kd (KL2B610) [nM] | koff (KL2B610) [s⁻¹] | kon (KL2B610) [M⁻¹ s⁻¹] | EC50 [4] [µg/mL] | Binder
1 | 1.6 |  |  |  |  |  |  |  |  |  |  | PE-A002B39 (antibody, mouse IgG2a, kappa, V domains shown, R-phycoerythrin conjugate, 1:1 PE:antibody; attachment site and chain not stated, also called A002B39 conjugated to R-PE) VH: EVQLVQSGAEVKKPGSSVKVSCKASGGTFSSYAISWVRQAPGQGLEWMGGIIPIFGTANYAQKFQGRVTITADESTSTAYMELSSLRSEDTAVYYCARVQWGLDYWGQGTLVTVSS VL: EIVLTQSPATLSLSPGERATLSCRASQSVDSALAWYQQKPGQAPRLLIYGASNRATGIPARFSGSGSGTDFTLTISSLEPEDFAVYYCQQRFNWPITFGQGTKVEIKR
2 |  | 3.49 | 0.000202 | 57900 | 0.99 | 0.000333 | 339000 | 1.11 | 0.000315 | 285000 | 0.4 | A002B39 (antibody, mouse IgG2a, kappa, V domains shown, expressed in HEK293 Expi or CHO; also called A002M39) VH: EVQLVQSGAEVKKPGSSVKVSCKASGGTFSSYAISWVRQAPGQGLEWMGGIIPIFGTANYAQKFQGRVTITADESTSTAYMELSSLRSEDTAVYYCARVQWGLDYWGQGTLVTVSS VL: EIVLTQSPATLSLSPGERATLSCRASQSVDSALAWYQQKPGQAPRLLIYGASNRATGIPARFSGSGSGTDFTLTISSLEPEDFAVYYCQQRFNWPITFGQGTKVEIKR

— patent publication US20220064334A1 (Janssen / Centocor, published 2022)
